Source: the RNAGym collection of RNA variant scans (doi:10.1073/pnas.2313332121)

B1: TPR t1 (parent)
chain: GACCAAUCUGCCCUCAGAGCUCGAGAACAUCUUCGGAUGCAGAGGAGGCAGGCUUCGGUGGCGCGAUAGCGCCAACGUCCUCAACCUCCAAUGCAUCCCACCACAUGAUGAUGCCUGAAGAGCCUUGGUUUUUUG

Variants of: B1
Experiment: polymerase ribozyme fitness, log enrichment relative to wild type (log ratio); higher = more active; in vitro selection for triplet polymerase activity
In short: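 Streptavidin-bead capture of gel-excised extended constructs, followed by RT-PCR, closed a single triplicate in vitro selection round. That round began by annealing PCR-built, transcribed mutant libraries of each subunit of a heterodimeric triplet polymerase ribozyme with a biotinylated primer, the partner subunit and triplets, then incubating them frozen at −7 °C. After Illumina sequencing of inputs and outputs, genotypes needed ≥10 input reads and ≥1 read per output. Fitness is the base-2 logarithm of genotype enrichment over wild-type enrichment, using inverse-variance-weighted replicate averages.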

Variant	polymerase ribozyme fitness (log ratio)
G60A A91C	-1.35
G60C U87A C101U G117A U132A	-1.89
U59A C64U C82G	-0.95
G60C G127A	-1.59
G60A G69A U87A	-3.78
G58U G60U C80U U87A C89U	-3.57
G60C G93A	-0.963
U59A C70U U87A	-1.83
G60A C79U U130C	0.829
G60C C86A G117C C123U	-6.38
G60C G69U G93A G113C	-5.05
G60A G61A C88A G120C A121U	-2.51
G60A C88U G122A	-2.19
G60U C82U G110U	-1.72
U59C G71C	-3.63
G60C C85A	-0.933
G60C C99U G117A U133G	-6.01
G60A U78G A84U G93A C102A	-4.94
G60U G65U A121C	-6.44
G60A G77A C82G	-0.994
U59C U81G	-3.51
G60C U109G	-5.41
U59G C86U A95U C115A C123U	-2.76
G60A A90C C123U	0.00477

Variant	polymerase ribozyme fitness (log ratio)
U59G G61U	-0.648
G60A G61U G127C	-5.15
G60U G63U G113U G117U	-5.19
U59G G63U U129C	-2.43
U59C A83U C94A C115U	-4.3
G60C G63A	-5.52
G60C C79G G122A	-2.36
U59G U109G G120U	-4.53
U59G C102A	-1.41
G60C U78A A91U	-2.07
U59C G63A G69U	-5.13
G60A C114A A121G	-0.404
G60C C82A A105G U131A	-4.31
G60A U112A	1.13
G60A C79U	0.344
U59G G110U G135U	-2.85
G60A C99U G110U U130A	-5.82
G60U C102U U116A	-4.78
G60C C97G U109A	-7.09
G60U C79U G93A C102A	-2.44
G60A G93A A121U	1.81
G60C A84U U116C	-0.854
U59G A90G C97U A111C	0.601
U59A C70U U96C	-1.25

Variant	polymerase ribozyme fitness (log ratio)
G60A C89A A105U C114U	-6.37
G60A U81A	-1.44
U59C U78C G122A	-0.562
G60U A111G U126A	-1.33
G60A G120U	0.305
G60A C89A	-1.99
G60C U78A	-0.111
U59A G77A	-0.182
G60A G93U	-1.61
G60U C101U A111C	0.104
G60A C86U	-0.149
G58U G60C C88U A95U	-2.05
U59A G93C C114U	-2.6
G60A G128A	-2.27
G60C A95G	0.473
G60A G61U U96G	-2.55
U59C C80A U81C	-3.7
U59A A83G	-0.546
G58U G61A U131G	-0.481
G60C C104U U126A	-1.46
G60C U81C U116A	-2.88
U59C U106G	-1.74
U59G U96G A111C U131A U133A	-1.54
U59A U81C U87A	-1.17

Variant	polymerase ribozyme fitness (log ratio)
G60U C79U U81A C97A U106A	-6.56
G60C A83C	-0.586
G60C A83G	-1.24
G60A U106G	-0.897
G60A U106A	-0.15
G60A C123A	0.222
U59C C70U C85A	-2.04
G60A G69U C72U C86G A118U U129A	-5.04
G60U C86U	-1.37
G60A G113A	-0.894
G60A G113U	-1.94
G60U G77C C89U U132A	-0.345
G60C G113C	-2.72
G60A U112G G120A	-2.56
G60A A90G U96C C101G	-1.58
G60U C89U U92A A118U	-2.14
G60A C115U	-1.41
G60C A84C	-0.975
G60U C123A	0.751
U59C G113U	-3.62
U59C G113A	-1.03
G60A C73A	-0.416
G60A G135C	0.136
G60U C124A	1.7

Variant	polymerase ribozyme fitness (log ratio)
U59A C62G	-5.21
G60A C64A C80U C97A C115A U125A U126G	-7.2
G60C C73U U130G	-0.603
U59A C94A	-0.84
G60A U81G U109A C124A	-7.74
U59A A90G C123U	1.4
G60C A111U U116C	-5.57
U59A U92G C104U	-2.6
G60A C101A U106A A119U C123U	-4.23
G60C C85U U96A U106C A119U	-4.09
G60A C98G	-7.02
G60A C98A	-4.29
G60A C64A U112C	-6.76
U59G C88G	-2.09
G60A A90U	-1.06
G60U C115U	-0.124
U59C A118C	-2.95
G60C C97A	-4.44
U59A G63U	-1.93
U59C U87A U112C	0.815
U59G A74G	-0.396
G60C G61C C73G C101G A111U G113C C123U U125G U126G	-7.1
G60C C124A	1.07
G60C C124G	0.305

Variant	polymerase ribozyme fitness (log ratio)
U59C A83C C101G C115U U116A	-5.84
G60A G69U	-0.576
U59A C70G	-5.27
G60A G69U A95U U126A	-2.8
U59A C124U	1.47
G60C A66G C82A	-1.84
G60C C123U	0.343
G60U G61A U106C G128A U130A	-4.75
U59G G60A C85A	-2.54
U59A C85U G113A	-2.11
G60U C114A	-1.45
U59A G117U	-2.68
G60A U78C	-0.393
G60A G93C U132A	-1.25
G60A C82U U109G	-5.13
G60U C94G G110C G117A	-7.56
G60A C85U U106G	-3.68
G60C C76U	-3.93
U59C A83U	-0.619
U59A U112A	1.47
G60U C70U	-2.43
U59C U130C	-0.123
G60C G128C	-2.73
U59C G71U C88U U92A	-5.66

Variant	polymerase ribozyme fitness (log ratio)
G60C G117A	-0.79
G60A G110A U112C	-1.67
G60A C88U A118G	-1.01
U59A C64A A118U	-6.49
G60A C94A	-2.04
G60U A121U C124A U131G	-3.49
G58U U81A C124A	1.33
U59C G120A	0.486
U59C U112C	1.98
U59C A111U A118U	-4.73
G60U C62G U92C	-2.78
U59A A75U C86A C115G U116A G117A	-5.94
G60A C104A G113U	-5.38
G60A U78C C97G	-4.55
U59C C89A A95C G113C	-4.48
U59A U87A G113U A118G	-4.7
G60A G93U U112C G113U	-5.49
G60A C82U C85G U129A	-3
U59A G128A	-1.96
G60C C98G	-6.74
G60U A121G	1.76
G60C U130C	-1.11
U59G G61U A118U	-0.0772
